The record followed here is patent US20240101642A1 (DUKE UNIVERSITY, published 2024).

Experiment [1] has as its target β2AR ligated to a non-phosphorylated version of the V2R peptide, in HDL particles (β2ARnp) (human, UniProt P07550 1-365). Put plainly: cell-based or functional assay.
The target of experiment [2] is T1, wild-type (WT) β2AR reconstituted in high-density lipoprotein particles (HDL-β2AR), non-phosphorylated (human, UniProt P07550 1-413). Put plainly: cell-based or functional assay.
The target in experiment [3] is T1, wild-type (WT) β2AR reconstituted in …. Put plainly: in situ read-outs: [125I]-CYP/isoproterenol competition binding with HDL-β2AR and bimane fluorescence.
Experimental: Bimane-labeled β2AR or β2ARpp HDLs were incubated with or without isoproterenol for 15 min at room temperature before the addition of excess transducer. […] The reactions were equilibrated for at least 30 min in black, solid-bottom 96-well microplates before fluorescence emission spectra were collected on a CLARIOstar plate reader (BMG LABTECH) in top-read mode, with excitation at 370 nm (16 nm bandpass) and emission scanning from 400 nm to 600 nm (10 nm bandpass) in 1 nm increments. Reactions were set up in duplicate in each experiment, and wells for background subtraction contained all components except the bimane-labeled HDLs. Experiments were repeated at least three times.
Radioligand Binding: All equilibrium competition radioligand binding studies were conducted in a final volume of 200 μL containing HDL-receptor, radioligand, a titration of unlabeled competitor, and the presence or absence of the indicated transducer protein. All components were diluted in assay buffer containing 20 mM HEPES, pH 7.4, 100 mM NaCl, and 1 mg/mL bovine serum albumin (BSA). […] Binding reactions proceeded at room temperature and were harvested onto glass-fiber filters (GFB) with 0.3% polyethyleneimine (PEI) using a 96-well Brandel harvester. Binding data were analyzed in GraphPad Prism using a sigmoidal dose-response curve fit, and differences in log IC50 values were analyzed by one-way ANOVA.

B1: β-arrestin1, minimal cysteine and truncated variant of rat βarr1 (βarr1-MC-393) (other, UniProt P29066 1-393, looked up)
chain: MGDKGTRVFKKASPNGKLTVYLGKRDFVDHIDLVDPVDGVVLVDPEYLKERRVYVTLTAAFRYGREDLDVLGLTFRKDLFVANVQSFPPAPEDKKPLTRLQERLIKKLGEHAYPFTFEIPPNLPSSVTLQPGPEDTGKAIGVDYEVKAFVAENLEEKIHKRNSVRLVIRKVQYAPERPGPQPTAETTRQFLMSDKPLHLEASLDKEIYYHGEPISVNVHVTNNTNKTVKKIKISVRQYADIVLFNTAQYKVPVAMEEADDTVAPSSTFSKVYTLTPFLANNREKRGLALDGKLKHEDTNLASSTLLREGANREILGIIVSYKVKVKLVVSRGGLLGDLASSDVAVELPFTLMHPKPKEEPPHREVPESETPVDTNLIELDTNDDDIVFEDFAR
notes: range 1-393; Expressed as GST fusion in BL21(DE3) and removed from GST by thrombin; also called βarr1-393 minimal cysteine
On to B1, for which the “log IC50 of isoproterenol (ISO), [125I]-CYP competition binding, in the presence of βarr1 (no transducer: -6.42+/-0.09)” value in experiment [1] was -6.49 log. The “log IC50 of isoproterenol (ISO), [125I]-CYP competition binding, in the presence of βarr1 (no transducer: -6.82+/-0.03)” value in experiment [2] was -6.81 log. In addition, the binding result in experiment [3] was “no binding (tested: micromolar concentrations)”.
